T1: His-tagged IFNAR1 (human, UniProt P17181 28-436)
T1 construct: interferon alpha/beta receptor 1 (IFNAR1), human; Soluble recombinant receptor subunit loaded on Ni-NTA biosensors; source: bought: ACROBiosystems (IF1-H5225)
T1 sequence (looked up): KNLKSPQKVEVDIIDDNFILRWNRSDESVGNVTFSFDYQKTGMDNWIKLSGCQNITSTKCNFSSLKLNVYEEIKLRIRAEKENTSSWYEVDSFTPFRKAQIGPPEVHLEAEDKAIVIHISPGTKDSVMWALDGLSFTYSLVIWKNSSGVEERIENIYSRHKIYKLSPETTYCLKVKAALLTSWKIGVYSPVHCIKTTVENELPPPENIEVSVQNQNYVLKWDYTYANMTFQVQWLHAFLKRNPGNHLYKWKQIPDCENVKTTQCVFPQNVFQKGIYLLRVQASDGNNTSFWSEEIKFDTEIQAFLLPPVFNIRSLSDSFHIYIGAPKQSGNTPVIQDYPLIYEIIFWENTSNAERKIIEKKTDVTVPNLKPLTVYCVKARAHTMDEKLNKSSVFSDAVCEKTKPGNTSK

T2: His-tagged IFNAR2 (human, UniProt P48551 27-243)
T2 construct: interferon alpha/beta receptor 2 (IFNAR2), human; Soluble recombinant receptor subunit loaded on Ni-NTA biosensors; source: bought: ACROBiosystems (IF2-H5224)
T2 sequence (looked up): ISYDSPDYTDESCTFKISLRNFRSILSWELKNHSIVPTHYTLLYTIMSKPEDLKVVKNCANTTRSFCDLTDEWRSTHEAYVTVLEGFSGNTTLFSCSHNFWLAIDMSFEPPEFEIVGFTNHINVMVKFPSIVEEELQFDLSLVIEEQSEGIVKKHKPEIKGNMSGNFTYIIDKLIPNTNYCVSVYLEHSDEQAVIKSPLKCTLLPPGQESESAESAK


What was measured:
Conditions in all cases: both partners purified
[1] = molecular target: T1, His-tagged IFNAR1; test: BLI; His-tagged IFNAR1 (25 nM) or IFNAR2 (100 nM) loaded on Ni-NTA biosensors for 600 s; IFN-I in solution, association 60-120 s, dissociation 120 s; 0.02% Tween-20, 0.1% BSA in 1x PBS, pH 7.4; Octet R2
[2] = molecular target: T2, His-tagged IFNAR2; test: as above
[3] = molecular target: T3, Fc-tagged IFNα1 (human, UniProt P0DY56); test: BLI; blocking format: IFN-I preincubated 1 h at room temperature with rontalizumab (1:50), sifalimumab (1:50) or plasma (1:10) in assay buffer with 50% goat serum; His-tagged IFNAR1 or IFNAR2 loaded on Ni-NTA biosensors, blocked in 100% goat serum; association 120 s
T3 construct: interferon alpha-1 (IFNα1), human; source: bought: ACROBiosystems (IFA-H5258)

Row | Binder | binding result [1] | binding result [2] | binding result [3]
1 | Fc-tagged IFNα1 (Fc fusion, human, UniProt P0DY56 24-189, looked up, interferon alpha-1 (IFNα1), human; source: bought: ACROBiosystems (IFA-H5258)) CDLPETHSLDNRRTLMLLAQMSRISPSSCLMDRHDFGFPQEEFDGNQFQKAPAISVLHELIQQIFNLFTTKDSSAAWDEDLLDKFCTELYQQLNDLEACVMQEERVGETPLMNADSILAVKKYFRRITLYLTEKKYSPCAWEVVRAEIMRSLSLSTNLQERLRRKE | binds | binds | 
2 | sifalimumab (antibody, V domains shown, source: bought: Thermo Fisher Scientific (MA5-41904)) VH: QVQLVQSGAEVKKPGASVKVSCKASGYTFTSYSISWVRQAPGQGLEWMGWISVYNGNTNYAQKFQGRVTMTTDTSTSTAYLELRSLRSDDTAVYYCARDPIAAGYWGQGTLVTVSS VL: not shown |  |  | binds
3 | rontalizumab (antibody, V domains shown, source: bought: Thermo Fisher Scientific (MA5-41908)) VH: EVQLVESGGGLVQPGGSLRLSCATSGYTFTEYIIHWVRQAPGKGLEWVASINPDYDITNYNQRFKGRFTISLDKSKRTAYLQMNSLRAEDTAVYYCASWISDFFDYWGQGTLVTVSS VL: DIQMTQSPSSLSASVGDRVTITCRASQSVSTSSYSYMHWYQQKPGKAPKVLISYASNLESGVPSRFSGSGSGTDFTLTISSLQPEDFATYYCQHSWGIPRTFGQGTKVEIK |  |  | binds

Reference: paper PMC11924951 (The Journal of Experimental Medicine, 2025)
